{"source": "IntAct's records for PubMed 37582800", "parents": {"B1": {"name": "Protein MalY (Escherichia coli (strain K12)), P23256 (parent)", "chain": "MFDFSKVVDRHGTWCTQWDYVADRFGTADLLPFTISDMDFATAPCIIEALNQRLMHGVFGYSRWKNDEFLAAIAHWFSTQHYTAIDSQTVVYGPSVIYMVSELIRQWSETGEGVVIHTPAYDAFYKAIEGNQRTVMPVALEKQADGWFCDMGKLEAVLAKPECKIMLLCSPQNPTGKVWTCDELEIMADLCERHGVRVISDEIHMDMVWGEQPHIPWSNVARGDWALLTSGSKSFNIPALTGAYGIIENSSSRDAYLSALKGRDGLSSPSVLALTAHIAAYQQGAPWLDALRIYLKDNLTYIADKMNAAFPELNWQIPQSTYLAWLDLRPLNIDDNALQKALIEQEKVAIMPGYTYGEEGRGFVRLNAGCPRSKLEKGVAGLINAIRAVR", "partner": "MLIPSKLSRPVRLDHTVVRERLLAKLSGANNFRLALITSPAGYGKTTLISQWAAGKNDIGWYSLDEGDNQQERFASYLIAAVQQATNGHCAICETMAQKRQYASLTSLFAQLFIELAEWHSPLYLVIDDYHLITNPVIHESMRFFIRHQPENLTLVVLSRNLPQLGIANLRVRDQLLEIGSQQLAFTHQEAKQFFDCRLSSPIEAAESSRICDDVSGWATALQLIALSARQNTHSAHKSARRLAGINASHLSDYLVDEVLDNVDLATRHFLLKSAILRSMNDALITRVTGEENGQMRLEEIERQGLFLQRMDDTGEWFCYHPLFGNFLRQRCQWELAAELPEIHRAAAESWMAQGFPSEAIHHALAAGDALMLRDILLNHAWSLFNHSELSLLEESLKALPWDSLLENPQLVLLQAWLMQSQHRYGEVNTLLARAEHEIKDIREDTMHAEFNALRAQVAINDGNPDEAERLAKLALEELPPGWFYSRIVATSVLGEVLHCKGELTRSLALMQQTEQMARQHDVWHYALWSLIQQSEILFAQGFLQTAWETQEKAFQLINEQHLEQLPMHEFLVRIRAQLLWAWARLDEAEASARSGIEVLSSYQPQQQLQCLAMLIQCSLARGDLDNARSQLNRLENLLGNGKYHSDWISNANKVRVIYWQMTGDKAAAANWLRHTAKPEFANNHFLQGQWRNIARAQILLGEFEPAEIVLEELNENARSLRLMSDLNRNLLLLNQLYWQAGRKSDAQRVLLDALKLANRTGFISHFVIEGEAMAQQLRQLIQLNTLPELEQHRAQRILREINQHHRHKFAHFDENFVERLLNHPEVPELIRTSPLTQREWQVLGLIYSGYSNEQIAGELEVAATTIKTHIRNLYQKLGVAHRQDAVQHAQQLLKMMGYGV"}, "B2": {"name": "HTH-type transcriptional regulator MalT (Escherichia coli (strain K12)), P06993 (parent)", "chain": "B1 partner", "partner": "B1 chain"}}, "data": [{"variants_of": "B1", "settings": "with malt_ecoli malT", "values": [{"variant": "MFDFSKVVDRHGTWCTQWDYVADRFGTADLLPFTISDMDFATAPCIIEALNQRLMHGVFGYSRWKNDEFLAAIAHWFSTQHYTAIDSQTVVYGPSVIYMVSELIRQWSETGEGVVIHTPAYDAFYKAIEGNQRTVMPVALEKQADGWFCDMGKLEAVLAKPECKIMLLCSPQNPTGKVWTCAELAIMADLCERHGVRVISDEIHMDMVWGEQPHIPWANVARGDWALLTSGSKSFNIPALTGAYGIIENSSSRDAYLSALKGRDGLSSPSVLALTAHIAAYQQGAPWLDALRIYLKDNLTYIADKMNAAFPELNWQIPQSTYLAWLDLRPLNIDDNALQKALIEQEKVAIMPGYTYGEEGRGFVRLNAGCPRSKLEKGVAGLINAIRAVR", "note": "[D182A;E185A;S218A]", "effect of a mutation on the interaction": "with no effect"}]}, {"variants_of": "B2", "settings": "with maly_ecoli malY", "values": [{"variant": "E140A", "effect of a mutation on the interaction": "with no effect"}, {"variant": "R143A;R173A", "effect of a mutation on the interaction": "disrupting interaction strength"}, {"variant": "N169A", "effect of a mutation on the interaction": "with no effect"}, {"variant": "R143A", "effect of a mutation on the interaction": "disrupting interaction strength"}, {"variant": "R173A", "effect of a mutation on the interaction": "disrupting interaction strength"}]}]}
